In the supplement of paper PMC11865577:

System: TO-N3 (biotin conjugate)
Assay: pull-down binding Z-score (relative to library population); higher = stronger binding
Conditions: RNA library: Library-2
How it was run: (§1)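 Streptavidin beads with 100 pmol of biotin-conjugated small molecule were incubated for 60 min at 25 °C with 1 μg of heat-folded Cy5- or Cy3-end-labelled RNA library in phosphate/NaCl/KCl buffer. Bound RNA was eluted in hot SDS after three washes and hybridised to a DNA barcode microarray at 55.5 °C for 20 h. Each binding score is a library-referenced Z-score, computed after beads-only subtraction and a trimmed mean of barcoded replicate probes.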

Sequence | pull-down binding Z-score
ACUACUAUAGGCCGCUGGGAAGCAGU [hsa-mir-130b] | 1.13
ACUACUGUACUUUACAGCUAGCAGU [hsa-mir-301a] | 0.303
ACUACUGUGCUCUGAGAAGCAGU [hsa-mir-301b] | 0.643
ACUAGAUUUGAAUCCAGACCUUUAGU [hsa-mir-5584] | 0.715
ACUCCCAGAACUCAUUAAGUUGGUAGU [hsa-mir-1278] | -0.188
ACUCCUAGGUCACGGAAGU [hsa-mir-6838] | -0.23
ACUGAACCAGCUUCAAACAAGUUCACU [hsa-mir-653] | -0.121
ACUUAAGCACCAGGUAAAAUCUGGUGCUUAAGU [hsa-mir-4720] | -1.56
ACUUCAGAUGCUUCAUGACA [hsa-mir-6865] | -0.0452
ACUUUCACCAGAGAGCAGAAAGU [hsa-mir-371b] | -0.636
ACUUUCUGGUGCCAGAAUGAAAGU [hsa-mir-512-2_512-1] | -0.538
ACUUUCUGUUUGAAAGAAAACAAAGU [hsa-mir-519e] | -0.981
ACUUUUUUUUUUUUUUUUUUUAAUGUUAAAAGU [hsa-mir-5588] | -0.82
AGAAAAUUUUUCUCCAAAGUUUUCU [hsa-mir-4659b] | -1.06
AGAAACCUACUUAUUACAUAGUUUACAUAAGAAGCGUGAU [hsa-mir-1322] | 0.0288
AGAAAGUGAAACACUAUUUUAGGUUUU [hsa-mir-4458] | -0.0974
AGAAAUCAAGCUAUUUGCUAAAAGUUCU [hsa-mir-6844] | -0.316
AGAACAGAUAUAUCCACAGUACACUUGGCUGUUCU [hsa-mir-4753] | -0.943
AGAACAUUCGUUCACUUUCCU [hsa-mir-6747] | -0.404
AGAACUUUGGUUUU [hsa-mir-4434] | -1.1
AGAAGAACU [hsa-mir-378j] | -0.272
AGAAGACCU [hsa-mir-378g] | 0.403
AGAAGCCCAGGUUCUGAAUCCCCU [hsa-mir-6734] | 0.628
AGAAGCUAAAGUGUAGAUCAAACGCAUAAUGGCUGA [hsa-mir-4500] | 0.65
AGAAGGCCUAUGGUGAUUUGCAUUCUU [hsa-mir-6875] | -0.072
AGAAUUACUUAUCUGAGCCAAAGUAAUUCA [hsa-mir-1297] | 0.386
AGACAGCCUGAGUUGGAGGCUCAUCUUCACUUCUUGCUGUGU [hsa-mir-3168] | 0.262

Sequence | pull-down binding Z-score
AGACCUUCCUUCCUUGUCU [hsa-mir-3163] | -0.558
AGACUCUGGAUUUUACACUUGGAGUG [hsa-mir-887] | -0.207
AGAGAUGAGCAUAAAGUUUUU [hsa-mir-6086] | -0.104
AGAGCACCUCCUAGAGAAUGUUGAACUAAAGGUGCCC [hsa-mir-4723] | 0.813
AGAGCGUGGGCUGGGGUUCAGGGACACCCUCU [hsa-mir-1229] | 1.57
AGAGGCUGUGGGCAGGGGGAGAUGUGAAGGAAAGAACUAGGACCCAUUCAUCCACU [hsa-mir-6807] | 2.97
AGAGUCCUGUUGUUGUAAGAUAGUGUCU [hsa-mir-550a-3] | -0.515
AGAUAGUGAAGUAGAUUAGCAUCUACU [hsa-mir-18a] | -0.387
AGAUAUAUAUAUACCUCAUAUGUAUAUGGUAUAC [hsa-mir-4777] | -1.37
AGAUCACUUUUCUGCACUGGACAGUGAUCU [hsa-mir-3686] | -0.904
AGAUCCCCUGUUAGAGACGGGCC [hsa-mir-6840] | 0.562
AGAUCCUGUCUUUCGUAAUCAGCAGCU [hsa-mir-222] | 0.344
AGAUCUAUGUCAUAUAUACAGAUAU [hsa-mir-3924] | 0.742
AGAUCUGUCUCUGAUUGUUUCCAAGAUCU [hsa-mir-6888] | 0.136
AGAUGAAAUGCCUUUGAUUU [hsa-mir-3658] | -0.715
AGAUGAGGGUGUCGGAUCAACU [hsa-mir-193a] | 0.579
AGAUGAGUUUAUGUUUUAUCCAACU [hsa-mir-193b] | -0.416
AGAUGUGUUUCCAUUCCACUAUCAUAAU [hsa-mir-365a] | -0.0846
AGCAAGGUGCGUCGUAUCUUGCU [hsa-mir-4804] | -0.702
AGCACUUUCUGUUGUCUGAAAGAAAAGAAAGUGCU [hsa-mir-516a-1_516a-2] | 0.686
AGCACUUUCUGUUUUGUGAAAGAAAAGAAAGUGCU [hsa-mir-516b-1] | -1.32
AGCACUUUGUGUUUUGUGAAAGAAAGUGCU [hsa-mir-516b-2] | -0.882
AGCAGUACCAGACGGUUCUGUGG [hsa-mir-3198-1] | 0.0664
AGCAGUACCAGAUGGUUCUGUGG [hsa-mir-3198-2] | -0.0604
AGCAUCUGAAUGGGUACAGUUGUUGU [hsa-mir-6818] | 0.0834
AGCAUGCACUUAAUGUGGGUGUAUGU [hsa-mir-668] | 0.184
AGCCAAAAUCACCAGGGA [hsa-mir-4534] | 0.259

System: TO-3-N3 (biotin conjugate)
Assay: as above
Conditions: RNA library: Library-2
How it was run: as §1

Sequence | pull-down binding Z-score
ACCACUGUGAAGACAGUAAAAUGUACAGUGGU [hsa-mir-597] | -0.324
ACCAUAGUCAUAAGUUAGGAGAUGUUAGAGCUGUGAGU [hsa-mir-4286] | -0.464
ACCAUAUCUAAGCUAAUGUGGUGGU [hsa-mir-876] | -0.157
ACCCAGGACUCUUUCAUGACCA [hsa-mir-665] | -0.0474
ACCCGGGUGGUGGAGGUUGCAGUGAGCCAAGAUUGCGCCACUGCACUCCAGCCUGGGC [hsa-mir-1273a] | 1.06
ACCCUGCAGCCCCAGCUGGAGGAUGAGGAGAUGCUGGGCUUGGGU [hsa-mir-4313] | 0.794
ACCUAACACACUGCCUUUUAUGUGGUAGGU [hsa-mir-5094] | -0.678
ACCUCCUGGCUUUUCCUCUGCAGCAUGGCUCGGACCUAGUGCAAUGUUUAAGCU [hsa-mir-6826] | 0.104
ACCUGUGUGUGCCCAAGUGUUUCUAGCAAACACAGGG [hsa-mir-3649] | 0.76
ACCUUCCAAGGCUCAGAAGGU [hsa-mir-4650-1_4650-2] | -0.702
ACGAGAGUGAGUAGCAGGUCUC [hsa-mir-128-2] | -0.117
ACGAUAUAGGUAUGUAUGUAUGUAUGUAUAAAAGCAGGGCAGUAUAUAUAUCGU [hsa-mir-4536-2] | 0.847
ACGAUAUAUAUACUGCCCUGCUUUUAUACAUACAUACAUACAUACCUAUAUCGU [hsa-mir-4536-1] | -0.603
ACGCGCUGUGACACUUCAAACUCGU [hsa-mir-126] | -0.0932
ACGUCCAGUGGUGCAGAGGUAAUGGACGU [hsa-mir-1306] | 0.0986
ACGUCUGGCCGCGUGCGCAUGU [hsa-mir-3175] | -0.222
ACGUGACCUCCUGGGCCUG [hsa-mir-6770-1_6770-3_6770-2] | 0.505
ACUAAUUUUUCCACUAGUUAGU [hsa-mir-4424] | 0.228

Sequence | pull-down binding Z-score
ACUACUAUAGGCCGCUGGGAAGCAGU [hsa-mir-130b] | 1.04
ACUACUGUACUUUACAGCUAGCAGU [hsa-mir-301a] | -0.475
ACUACUGUGCUCUGAGAAGCAGU [hsa-mir-301b] | 0.599
ACUAGAUUUGAAUCCAGACCUUUAGU [hsa-mir-5584] | 0.878
ACUCCCAGAACUCAUUAAGUUGGUAGU [hsa-mir-1278] | -0.0721
ACUCCUAGGUCACGGAAGU [hsa-mir-6838] | -0.255
ACUGAACCAGCUUCAAACAAGUUCACU [hsa-mir-653] | -0.0896
ACUUAAGCACCAGGUAAAAUCUGGUGCUUAAGU [hsa-mir-4720] | -1.09
ACUUCAGAUGCUUCAUGACA [hsa-mir-6865] | -0.0886
ACUUUCACCAGAGAGCAGAAAGU [hsa-mir-371b] | -0.485
ACUUUCUGGUGCCAGAAUGAAAGU [hsa-mir-512-2_512-1] | -0.391
ACUUUCUGUUUGAAAGAAAACAAAGU [hsa-mir-519e] | -0.798
ACUUUUUUUUUUUUUUUUUUUAAUGUUAAAAGU [hsa-mir-5588] | -0.429
AGAAAAUUUUUCUCCAAAGUUUUCU [hsa-mir-4659b] | -0.634
AGAAACCUACUUAUUACAUAGUUUACAUAAGAAGCGUGAU [hsa-mir-1322] | -0.129
AGAAAGUGAAACACUAUUUUAGGUUUU [hsa-mir-4458] | 0.0524
AGAAAUCAAGCUAUUUGCUAAAAGUUCU [hsa-mir-6844] | -0.362
AGAACAGAUAUAUCCACAGUACACUUGGCUGUUCU [hsa-mir-4753] | -0.759
